Reference: publication PMC2171414

Columns and labels:
Assay in all cases: co-IP
[1] = biological target: Caf4p-HTM (S. cerevisiae) (UniProt P36130)
[2] = biological target: Mdv1p-HTM (S. cerevisiae) (UniProt P47025)
[3] = biological target: M3TH-Fis1p (3XMyc/TEV/His8-Fis1p) (S. cerevisiae) (UniProt P40515)
Chain of UniProt P40515 (P40515 whole entry): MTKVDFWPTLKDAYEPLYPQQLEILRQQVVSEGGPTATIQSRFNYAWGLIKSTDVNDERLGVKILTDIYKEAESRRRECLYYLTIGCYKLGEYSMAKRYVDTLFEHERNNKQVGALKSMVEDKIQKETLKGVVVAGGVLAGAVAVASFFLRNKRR

| Molecule | percent coimmunoprecipitated [1] [%] | percent coprecipitated [2] [%] | percent coprecipitated [3] [%] | percent coprecipitated [1] [%] |
| --- | --- | --- | --- | --- |
| Caf4p-N-HA (residues 1–274) (from UniProt P36130 1-274) (domain or fragment) | 5 | 1 |  |  |
| Caf4p-HA (Caf4p wt, residues 1–659) (from UniProt P36130 1-643) (natural protein) | 5 | 1 | 5 |  |

Other lines, results leading:

| percent coimmunoprecipitated [1] [%] | percent coprecipitated [2] [%] | percent coprecipitated [3] [%] | percent coprecipitated [1] [%] | Molecule |
| --- | --- | --- | --- | --- |
|  |  |  | 1 | Mdv1p-N-HA (residues 1–300) (domain or fragment) MSVNDQITHIGKTLSTTASAFLNYQKSNSNTQDVLTNNGPYKNLLSNTVNNASSTSYFYKRTEHGRFVKNASNTFEDIYSKTRRGDVFRNKFTDNKTCFRMLTYISDDLLNEIPTKEGLKSDADGKLLTEGGENENLRKNASKKETSLFQGFKSYLPIAELAIENTERLNYDTNGTSGTVGAKDVMSKTNERDEIHTELPNFQDSFLIPPGVETKKISSSYSPSALKSFSQTLVNSLEFLNIQKNSTLSEIRDIEVEVENLRQKKEKLLGKIANIEQNQLLLEDNLKQIDDRLDFLEEYG |
|  |  |  | 1 | Mdv1p-HA (Mdv1 wt, residues 1–714) (natural protein) MSVNDQITHIGKTLSTTASAFLNYQKSNSNTQDVLTNNGPYKNLLSNTVNNASSTSYFYKRTEHGRFVKNASNTFEDIYSKTRRGDVFRNKFTDNKTCFRMLTYISDDLLNEIPTKEGLKSDADGKLLTEGGENENLRKNASKKETSLFQGFKSYLPIAELAIENTERLNYDTNGTSGTVGAKDVMSKTNERDEIHTELPNFQDSFLIPPGVETKKISSSYSPSALKSFSQTLVNSLEFLNIQKNSTLSEIRDIEVEVENLRQKKEKLLGKIANIEQNQLLLEDNLKQIDDRLDFLEEYGLEVIEANSDENAEDDGMSERKALKNDAIRNEGVTTESISSEASNLPPRRRQQLRDDNSLNRLGAFYSKSKKRHRKSFPTFQQLYEPGTKIGSIMSTHDDFLTCLDFDAPFGTLCTAGYLDHTVKIWDLSKQNKIGELAGHLATINCMQINRDYGTLVTGGRDAALKLWNLNLAQQLYQETQNLTSPTNHIDSPCVHTFEAHTDEVTALSLDPSFLVSGSQDRTIRQWDLRSGKCLQTIDLSFANVLTTSTNVDLSKSTLLTQRNERPSIGALQSFDAALATGTKDGVVRLWDLRSGKVIRTLKGHTDAITSLKFDSACLVTGSYDRTVRIWDLRTGLLNKFHAYSAPVLSLDLFQENAAVVVADEPSVQIYDSEKDESWSCVEQGNETSVSTVKYKENYMVEGRENGDVNIWAV |
